Test results: US20250057950A1 (ORICELL THERAPEUTICS, published 2025)

T1: N-terminal peptide of human GPRC5D (1-27), biotin-labelled (human, labeled with biotin (EZ-Link Sulfo-NHS-LC-Biotin))
T1 construct: Immobilised on an SA sensor at 20 nM; also called N-terminal peptide (Biotin) of GPRC5D
T1 peptide: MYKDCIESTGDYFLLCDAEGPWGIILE

B1: G5VHH1-hIgG1Fc (Fc fusion)
chain: EVQLVESGGGLVQPGGSLRLSCAASGRIFSRDAMGWFRQAPGKGRELVAAINSSGGNTYYPDSVEGRFTISRDNAKRMVYLQMNSLRAEDTAVYYCAARGVRWTSTTAYGYNYWGQGTQVTVSS
notes: also called G5VHH1 antibody; not shown: human IgG1 Fc fragment (hIgG1Fc) of vector p3.4-hIgG1Fc
B2: 3E7 VHH (VHH)
VHH: B1 chain
notes: also called G5VHH1
B3: ET150-5 scFv (scFv, from another filing)
scFv: QSVLTQPPSASGTPGQRVTISCSGSRSNVGGNYVFWYQQVPGATPKLLIYRSNQRPSGVPDRFAGSKSGSSASLAISGLRSEDEADYYCATWDDSLSGFVFGTGTKVTVLGSRGGGGSGGGGSGGGGSLEMAEVQLVESGGGLVKPGGSLRLSCAASGFTFSDYYMSWIRQAPGKGLEWVSYISSSGSTIYYADSVKGRFTISRDNAKNSLYLQMNSLRAEDTAVYYCARGYGKAYDQWGQGTLVTVSS
B4: 4A2 VHH (VHH)
VHH: EVQLVESGGGLVQPGGSLRLSCAASGFIFSRYDMGWFRQAPGKGRELVAVITWGGGSTYYPDSVEGRFTISRDNAKRMVYLQMNSLRAEDTAVYYCAARSASAYRTGRLEYNYWGQGTQVTVSS
B5: 3B5 VHH (VHH)
VHH: EVQLVESGGGLVQPGGSLRLSCAASGFIFSRYGMGWFRQAPGKGRELVAAINWSDGTTYYPDSVEGRFTISRDNAKRMVYLQMNSLRAEDTAVYYCAADRRLRSQTGYDYWGQGTQVTVSS
notes: From the synthetic nanobody library NanoOri_1.0 (Caplacizumab backbone)
B6: G5VHH2-hIgG1Fc (Fc fusion)
chain: EVQLVESGGGLVQPGGSLRLSCAASGLIFSRYVMGWFRQAPGKGRELVAFINSSGGSTNYPDSVEGRFTISRDNAKRMVYLQMNSLRAEDTAVYYCAASSRTSTTRGYNYWGQGTQVTVSS
notes: also called G5VHH2 antibody; not shown: human IgG1 Fc fragment (hIgG1Fc) of vector p3.4-hIgG1Fc
B7: 4B3 VHH (VHH)
VHH: B6 chain
notes: also called G5VHH2

How the values were obtained:
[1] = molecular target: T2, human G protein-coupled receptor class C group 5 member D (GPRC5D) protein (human, UniProt Q9NZD1 1-345); experiment: flow cytometry on GPRC5D-CHO cells, anti-human IgG Fc secondary antibody
T2 construct: whole, on cells; The same protein on several cell lines; also called HuGPRC5D; CHO-GPRC5D
Description: CHO-GPRC5D target cells were formulated with PBS buffer to a concentration of 1×10⁶ cells/mL, and added into a 96-well sharp-bottom plate (corning 3894) with 30 μL in each well. The antibodies to be detected, G5VHH1-hIgG1Fc and G5VHH2-hIgG1Fc were formulated with PBS buffer to a concentration of 30 μg/mL, and subject to 3-fold dilution to form a gradient of 8 concentrations (with the minimum concentration of 0). The formulated antibodies with different concentrations were mixed well with the plated target cells at 30 μL/well, and incubated in a refrigerator at 4° C. for 1 hr. 150 μL of buffer was added into each well, and centrifuged at 300 g for 5 min. The supernatant was then discarded, and the cells were additionally washed once. Goat-anti-human IgG (Fc-specific, ab98593) fluorescent secondary antibody was formulated with buffer at a ratio of 1:200, added into each well in an amount of 30 μl and mixed with the cells uniformly, and incubated in the refrigerator at 4° C. for 30 min. 170 μL of buffer was added to each well, and centrifuged at 300 g for 5 min. The supernatant was then discarded and the cells were additionally washed once. 35 μL of buffer was added into each well, mixed well, and the mixture was detected by iQue Screener Flow Cytometer (available from IntelliCyt Company). […]

[2] = molecular target: T1, N-terminal peptide of human GPRC5D …; experiment: BLI (Octet RED384), biotinylated peptide on SA sensor; fit R2 0.7914, model called not credible
Description: (§1) The G5VHH1 and G5VHH2 antibody sequences were cloned into an eukaryotic vector containing p3.4-hIgG1Fc of a human IgG1 Fc fragment (hIgG1Fc) sequence, facilitating the recombinant expression of GPRC5D VHH-hIgG1Fc to give a recombinant protein which was then purified to determine the affinity of G5VHH1-hIgG1Fc and G5VHH2-hIgG1Fc to the affinity N-terminal peptide (Biotin) of GPRC5D. Briefly, the N-terminal peptide of human GPRC5D (>sp|Q9NZD1|1-27: […]) protein was labeled with biotin (EZ-Link Sulfo-NHS-LC-Biotin, Pierce, 21327). By the biolayer interferometry (BLI) technique, the binding kinetics between antigen and antibody was analyzed using the molecular interaction analyzer fortebiooctetRED384 (PALL) (wherein both antigen and antibody were diluted with a PBS buffer containing 0.1% BSA and 0.02% Tween 20). The biotin-conjugated antigen with a concentration of 20 nM was immobilized to an SA sensor, and bound for 3 min; then bound with double-diluted antibody solution (G5VHH1 and G5VHH2 antibodies) for 5 min; and finally dissociated for 5 min. The obtained results were analyzed by Octet Data Analysis 9.0 software (fortebio) to calculate the binding strength between the antigen and the antibody, thereby giving the KD value, Ka (1/Ms) value and Kd (1/s) value. […]

[3] = molecular target: T2, human G protein-coupled receptor class …; experiment: flow cytometry (FACS) on CHO-GPRC5D cells
[4] = molecular target: T2, human G protein-coupled receptor class …; experiment: flow cytometry (FACS) on K562-GPRC5D cells
[5] = molecular target: T2, human G protein-coupled receptor class …; experiment: flow cytometry (FACS) on MM1S myeloma cells
Description: The target cells (i.e., MM1S myeloma cells) were formulated with buffer to a concentration of 1×10⁶ cells/mL, and added into a 96-well sharp-bottom plate (corning 3894) with 30 μL in each well. The antibody to be detected was formulated with buffer to a concentration of 10 μg/mL, and subject to 3-fold dilution to form a gradient of 8 concentrations. The formulated antibodies of different concentrations were mixed well with the plated target cells at 30 μL/well, and incubated in a refrigerator at 4° C. for 1 hr. 150 μL of buffer was added into each well, and centrifuged at 300 g for 5 min. The supernatant was discarded, and then the cells were loosened up by shaking, and additionally washed once. The fluorescent secondary antibody (ab98593) was formulated with buffer at a ratio of 1:200, added into each well in an amount of 30 μl and mixed with the cells uniformly, and incubated in the refrigerator at 4° C. for 30 min. 150 μL of buffer was added to each well, and centrifuged at 300 g for 5 min. The supernatant was discarded, and then the cells were loosened up by shaking, and additionally washed once. 35 μL of buffer was added into each well, mixed well, and the mixture was measured by a flow cytometer. Of those, ET150-5scFv is a positive control antibody with the sequence found in the patent application CN107428829A, 3B5VHH has an amino acid sequence as set forth in SEQ ID NO: 15, 3E7VHH has an amino acid sequence as set forth in SEQ ID NO: 19, 4A2VHH has an amino acid sequence as set forth in SEQ ID NO: 24, and 4B3VHH has an amino acid sequence as set forth in SEQ ID NO: 30.

[6] = molecular target: human G protein-coupled receptor class C group 5 member D (GPRC5D) protein (human) (UniProt Q9NZD1); experiment: flow cytometry (FACS) on CHO-GPRC5D cells
[7] = molecular target: human G protein-coupled receptor class C group 5 member D (GPRC5D) protein (human) (UniProt Q9NZD1); experiment: flow cytometry (FACS) on K562-GPRC5D cells
[8] = molecular target: human G protein-coupled receptor class C group 5 member D (GPRC5D) protein (human) (UniProt Q9NZD1); experiment: flow cytometry (FACS) on MM1S myeloma cells
[9] = molecular target: T1, N-terminal peptide of human GPRC5D …; experiment: BLI (Octet RED384), biotinylated peptide on SA sensor, antibody in solution
Description: as §1

T2 sequence (Q9NZD1 whole entry): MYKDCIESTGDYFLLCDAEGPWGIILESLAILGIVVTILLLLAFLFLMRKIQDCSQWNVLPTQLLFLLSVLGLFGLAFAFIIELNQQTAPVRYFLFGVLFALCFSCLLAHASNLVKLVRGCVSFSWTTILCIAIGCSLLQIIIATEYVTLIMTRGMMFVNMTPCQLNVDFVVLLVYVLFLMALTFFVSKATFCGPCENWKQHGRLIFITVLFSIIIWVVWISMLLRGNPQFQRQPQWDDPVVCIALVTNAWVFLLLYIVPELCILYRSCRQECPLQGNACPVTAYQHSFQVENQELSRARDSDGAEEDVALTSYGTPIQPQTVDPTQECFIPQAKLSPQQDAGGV

| Binder | EC50 [3] [µg/mL] | EC50 [4] [µg/mL] | EC50 [5] [µg/mL] | further results |
| --- | --- | --- | --- | --- |
| B1 |  |  |  | EC50 (read off the curve) [1]: ~1 µg/mL; binding result [2]: no binding |
| B2 | 0.426 | 0.576 | 0.286 |  |
| B3 |  |  |  | EC50 [6]: 0.249 µg/mL; EC50 [7]: 0.431 µg/mL; EC50 [8]: 0.911 µg/mL |
| B4 | 0.0687 | 0.164 | 0.0195 |  |
| B5 | 0.103 | 0.207 | 0.0439 |  |
| B6 |  |  |  | Kd [9]: 76.9 nM; EC50 (read off the curve) [1]: ~0.4 µg/mL |
| B7 | 0.18 | 0.216 | 0.658 |  |
